One block for each substance: values may come before it.
Biological target: low density lipoprotein receptor-related protein (LRP)
Assay: cell-based or functional assay
[1] = scale: % of passage versus filter for alteplase alone

% of abluminal alteplase (alteplase transport across in vitro BBB, zymography assay; alteplase 0.3 µM and DSPAalpha1 0.3 µM) (% of abluminal alteplase alone): 46.6 | alteplase (% of passage versus filter) (alteplase translocation across in vitro BBB, spectrozyme assay; alteplase 0.3 µM and DSPAalpha1 0.3 µM) [1]: 67
Substance: DSPAα1 (Desmoteplase) (from UniProt P98119 37-477) (enzyme)

% of abluminal alteplase (alteplase transport across in vitro BBB, zymography assay; alteplase 0.3 µM and DSPAalpha 2 0.3 µM) (% of abluminal alteplase alone): 25.1 | alteplase (% of passage versus filter) (alteplase translocation across in vitro BBB, spectrozyme assay; alteplase 0.3 µM and DSPAalpha2 0.3 µM) [1]: 61.9
Substance: DSPAα2 (from UniProt P15638 37-477) (enzyme)

% of abluminal alteplase (alteplase transport across in vitro BBB, zymography assay; alteplase 0.3 µM and Reteplase 0.3 µM) (% of abluminal alteplase alone): 51.6
Substance: Reteplase (from UniProt P00750 36-562) (enzyme)
